A short description of the data set: protein stability index of a GFP-peptide fusion (yeast GPS) (PSI 1-4); higher = more stable; sorted into four equal gates, so the index is relative within each strain. The method in brief: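 The protein stability index combines read frequencies across sorting gates, each weighted by its gate number and then summed. To obtain those frequencies, a pooled yeast library of GFP fusions to tiled 17-residue yeast protein peptides, on a plasmid also expressing Cherry, was grown to mid-log phase in leucine-free medium. The cells were sorted into four equal gates by GFP/Cherry ratio before plasmid amplification by PCR and Illumina sequencing.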

± gives the uncertainty stated by the source.

For PLARNYIKSMDLISKKT [RPR2], the protein stability index runs as follows: (doa10∆) 2.78 ± 0.065; (pdr5∆) 3.01 ± 0.063; (san1∆) 2.77 ± 0.054; (ubr1∆) 2.94 ± 0.039.

On to ASSNFPFLNETKPGVYY [RPC82], for which the protein stability index is, setting by setting: (doa10∆) 3.09 ± 0.12; (pdr5∆) 2.43 ± 0.09; (san1∆) 2.73 ± 0.091; (ubr1∆) 2.99 ± 0.072.

For the sequence RMSSEEVNSLLLQVNKT [GRR1], the protein stability index (doa10∆) was 3.03 ± 0.16, the protein stability index (pdr5∆) worked out at 3.13 ± 0.2, the protein stability index (san1∆) was determined as 2.96 ± 0.19 and the protein stability index (ubr1∆) was 2.78 ± 0.16.

As for ASLNLLQLAPGAHLGRF [RPL4A], the protein stability index by setting is: (doa10∆) 3.33 ± 0.16; (pdr5∆) 3.03 ± 0.15; (san1∆) 3.18 ± 0.092; (ubr1∆) 3.26 ± 0.076.

With AGRGFTLAEVKAAGLTA [RPL13A], the protein stability index is 2.27 ± 0.073 (doa10∆), 2.5 ± 0.071 (pdr5∆), 1.56 ± 0.093 (san1∆) and 1.77 ± 0.044 (ubr1∆).

Consider DHINWEHIKQDYVASLN [NSL1], for which the protein stability index was determined as 3.12 ± 0.069 (doa10∆), 3.23 ± 0.069 (pdr5∆), 2.72 ± 0.058 (san1∆) and 2.9 ± 0.056 (ubr1∆).

In the case of QTKRWPTMYTRLCICSG [SIN4], the protein stability index reads like this: (doa10∆) 1.4 ± 0.039; (pdr5∆) 1.48 ± 0.038; (san1∆) 1.51 ± 0.078; (ubr1∆) 1.58 ± 0.03.

On to SLAATYSMISLQNCCII [ARP9], for which the protein stability index reads like this: (doa10∆) 1.47 ± 0.057; (pdr5∆) 1.33 ± 0.056; (san1∆) 1.26 ± 0.099; (ubr1∆) 1.26 ± 0.041.

Regarding NTQDLLLLLSLFKKITN [YML103C/NUP188], the protein stability index runs as follows: (doa10∆) 1.26 ± 0.038; (pdr5∆) 1.3 ± 0.033; (san1∆) 1.58 ± 0.068; (ubr1∆) 1.55 ± 0.036.

With KTVPFQVNQLQRILEVL [SSN3], the protein stability index (doa10∆) worked out at 2.27 ± 0.033, the protein stability index (pdr5∆) was 2.11 ± 0.031, the protein stability index (san1∆) is 1.63 ± 0.041 and the protein stability index (ubr1∆) was 2.08 ± 0.03.

For VKEIVLPLFYDLLNAAS [IRR1], the protein stability index came to 2.36 ± 0.045 (doa10∆), 2.48 ± 0.052 (pdr5∆), 2.78 ± 0.036 (san1∆) and 2.69 ± 0.049 (ubr1∆).

Take HPFIPLLKEKPNALKPL [RRP6]: the protein stability index turned out to be 2.54 ± 0.065 (doa10∆), 2.7 ± 0.067 (pdr5∆), 2.94 ± 0.076 (san1∆) and 2.71 ± 0.053 (ubr1∆).

In turn, AMIDAGALEEITKDHKV [FAS2] returned a protein stability index (pdr5∆) of 2.99 ± 0.14 and a protein stability index (ubr1∆) of 2.19 ± 0.2.

For the setting “doa10∆”, FNEENGEDSTKPLGPCD [POP1] gave a protein stability index of 3.34 ± 0.14.

Take TRSKRLSQVYPTLVRSV [CSN12]: the protein stability index came to 1.72 ± 0.12 (doa10∆) and 2.1 ± 0.22 (pdr5∆).

Turning to TKGMITNLQRNVDRLYK [NUT2], the protein stability index is, setting by setting: (doa10∆) 3.47 ± 0.29; (pdr5∆) 3.35 ± 0.18; (san1∆) 2.69 ± 0.24; (ubr1∆) 3.24 ± 0.16.

With TEKKFTKEQYAAESKKY [RPL5], the protein stability index was determined as 3.2 ± 0.16 (doa10∆), 3.07 ± 0.14 (pdr5∆), 2.98 ± 0.075 (san1∆) and 3.02 ± 0.11 (ubr1∆).

Consider AISKKDLEEVKRFQVLY [SEC65], for which the protein stability index came to 2.6 ± 0.16 (doa10∆), 3.02 ± 0.1 (pdr5∆), 2.8 ± 0.29 (san1∆) and 2.3 ± 0.13 (ubr1∆).

With QNDELKFQGVLESEAQK [RPC34], the protein stability index runs as follows: (doa10∆) 3.41 ± 0.11; (pdr5∆) 3.21 ± 0.11; (san1∆) 3.23 ± 0.061; (ubr1∆) 2.93 ± 0.075.

Regarding IPDFRSSEGFYSKIKHL [SIR2], the protein stability index is, setting by setting: (doa10∆) 2.33 ± 0.13; (pdr5∆) 2.21 ± 0.075; (san1∆) 2.17 ± 0.15; (ubr1∆) 2.45 ± 0.079.

As to MAKRVADAQIQRETYDS [YLR335W/NUP2], the protein stability index worked out at 2.21 ± 0.22 (doa10∆), 2.7 ± 0.14 (pdr5∆), 2.08 ± 0.12 (san1∆) and 2.21 ± 0.1 (ubr1∆).

As to GLFDSFTNGVLAVTNLL [YML031W/NDC1], the protein stability index reads like this: (doa10∆) 2.64 ± 0.14; (pdr5∆) 2.95 ± 0.22; (san1∆) 2.75 ± 0.11.

Consider LISKPAKKNNFIEDLAP [UBP6], for which the protein stability index runs as follows: (doa10∆) 2.54 ± 0.084; (pdr5∆) 2.73 ± 0.066; (san1∆) 2.73 ± 0.069; (ubr1∆) 2.7 ± 0.062.

Take RKYDLFQNLELETEQLS [SMC2]: the protein stability index reads like this: (doa10∆) 3.21 ± 0.073; (pdr5∆) 3.1 ± 0.076; (san1∆) 1.99 ± 0.17; (ubr1∆) 2.17 ± 0.059.

On to TETALMNLKKELQGYIE [SRB5], for which the protein stability index by setting is: (doa10∆) 3.05 ± 0.097; (pdr5∆) 3.07 ± 0.089; (san1∆) 3.11 ± 0.062; (ubr1∆) 2.94 ± 0.085.

As for GGQHHHRINMDKYHPGY [RPL28], the protein stability index (doa10∆) worked out at 3.23 ± 0.1, the protein stability index (pdr5∆) amounted to 3.36 ± 0.056, the protein stability index (san1∆) worked out at 3.14 ± 0.1 and the protein stability index (ubr1∆) came out at 2.99 ± 0.055.

On to ILEEGSSGMGAFGGSGG [RPN10], for which the protein stability index reads like this: (doa10∆) 3.36 ± 0.13; (pdr5∆) 3 ± 0.16; (san1∆) 3.04 ± 0.15; (ubr1∆) 3.28 ± 0.081.

For the origin of these results see the supplement of paper PMC9732359.
